Test results reported in the nanobody polyreactivity screen of Harvey et al. (2022).

experiment: yeast display, Sf9 membrane polyspecificity reagent, FACS + sequencing; frameworks hold sequencing errors
How it was run: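 In a synthetic yeast display library (Saccharomyces cerevisiae BJ5465), nanobody expression was induced with galactose for 36–48 hours. FACS gates were set low and high (top ~1%) using anti-HA fluorescence for expression and streptavidin fluorescence for binding of the Sf9 membrane reagent. Each polyreactivity label is drawn from the gate of origin.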

Sequence | polyreactivity (PSR sort gate)
QVQLVESGGGLVQAGGSLRLSSAASGRTFRYYAMRWYRQAPAKERELVAAINRGGSTYYGDSVKGRFTISRDNAKNTVYLQMNSLKPVDTAVYYCNVDKYRIVGFHTPYDYWGQGTQVTVSS | high polyreactivity
QVQLVESGGGLVQAGGSLRLSSAASGRTFYANAMGWYRQAPRKERELVAAISSGGITNYADSVKGRFTISRDNAKNTVYLQMNSLKPEDTAVYYCPYDYWGQGTQVTVSS | low polyreactivity
QVQLVESGGGLVQAGGSLRLSSAASGRTFYLYAMGWYRQAPGKAMELVAAISRSGGITYYADSVKGRFTISRDNAKNTVYLQMNSLKPEDTGVYYCAASRAGGYYGKGYSWGQGSQVTVSS | high polyreactivity
QVQLVESGGGLVQAGGSLRLSSAASGRTFYVNAMGWYRQAPGKERELVAAITRSSGSTHYADSVKGRFTISRDNAKNTVYLQMNSLKPEDTAVYYCAADSTYRKYYYWGQGTQVTVSS | high polyreactivity
QVQLVESGGGLVQAGGSLRLSSAASGSIFDSNALGWYRQARGKERELVAAISLSGGSTYYADSVKGRFTISRDNAKNTVYLQMKSLKPEDTAVYYCAKDGWYEYYWGQGTQVTVSS | low polyreactivity
QVQLVESGGGLVQAGGSLRLSSAASGSIFGSNAMGWSRQAPGKERELVATITTSGGITYYADSVKGRFTISRDNAKNTVYLQMTSLKPEDTAVYYCAAAEGGGLVTYDYWGQGTQVTVSS | low polyreactivity
QVQLVESGGGLVQAGGSLRLSSAASGSIFGYAMGCDRHAPGKERELVASTTYADSVKGRFTISRDNAKNTVYLQMNSLKPEDTAVYYCAAEDRPLYWRFPDEMDYWGQGTQVTVSS | low polyreactivity
QVQLVESGGGLVQAGGSLRLSSAASGSIFGYNAIGWYRQAPGKERELVAAISYSGGRTYYADSVKGRFTISRDNAKNTVYLQMNCLKAEDTAVYYCAKVLQYRTFYTGYDYWGQGTQVTVSS | high polyreactivity
QVQLVESGGGLVQAGGSLRLSSAASGSIFIGYAMGWYRQAPGKARELVAAINDSGDRTYYADSVKGRFTISRDNAKNTVFLQMNSLKREDTAVYYCAADLGSLDPEYDYWGQGTQVTVSS | low polyreactivity
QVQLVESGGGLVQAGGSLRLSSAASGSIFITYAMGWYRQAPGKERELVAAIRDSGDRTYYADSVKGRFTISRDNAKNTVYLQMNSLKPEDTAVYYCNARWQEPLKYDYWGQGTQVTVSS | low polyreactivity
QVQLVESGGGLVQAGGSLRLSSAASGSIFPSYAMGWYIQAPGKETELVAAITTSGGNTFYADSVKGRFTISRDNAKNTVYLQMNSLKPEDTAVYYCAADYSPYTVEYDYWGQGTQVTVSS | low polyreactivity
QVQLVESGGGLVQAGGSLRLSSAASGSIFRGYAMGWYRQAPEKERELVAAISRRGGSTYYADSVKGRFTISRDNAKNTVYLQMNSLKPEDTAVYYCAKDGTGAGTYDYWGLGTQVTVSS | low polyreactivity
QVQLVESGGGLVQAGGSLRLSSAASGSIFSRYAMGWYRQAPGIERELVAAITWSGGSTYYADSVKGRFTISRDNAKNTVYLQMNSLKPEDTAVYYCAAFGYAPYNHRYDYWGQGTQVTVSS | low polyreactivity
QVQLVESGGGLVQAGGSLRLSSAASGSIFVHYAMGWYRQAPGKEREFVAAISRGGGTTYYADSVKGRFTISRDNAKNTVYLQLNCLKPEDNAVYYCNAVRFFEHDYWGQGTQVTVSS | high polyreactivity
QVQLVESGGGLVQAGGSLRLSSAASGSILWQYAMGWYRQAPGKERELVAAITYSGGSTHYADSVKGRFTISRDNAKNTVYLQMNSLKPEDTAVYYCAAGYWSRYAALRYDHWGQGTQVTVSS | low polyreactivity
QVQLVESGGGLVQAGGSLRLSSAASGSILYYNAMGWYRQAPGKERELVAAITSYGGDTYYADSVKGRFTISRDNAKNTVYLQMNSLKPEDSAVYYCAASSHFRPWAYYDDDYDHWGQGTQVTVSS | low polyreactivity
QVQLVESGGGLVQAGGSLRLSSAASGSIQFRNAMRWYRHAPGKERELVAAITVSGGSTYYADSVKGRFTISRDYAKNRVYLQMNSLKPEDNAVYLCAAVYLLRYSQFDYWGQGTQVTESS | low polyreactivity
QVQLVESGGGLVQAGGSLRLSSAASGSISDSYAMGWYRQAPGKERELVAAITSGDSTYYADSVKGRFTISRDNAKNTVYLQMNSLKPEDTAVYFCAKRVSRVRGYVFTDWSEYDYWGQGTQVTVSS | low polyreactivity
QVQLVESGGGLVQAGGSLRLSSAASGSISPQNVMGWYRQEPGKERELVAAITGGGSTNYADSVKGRFTISRDNAKNTVSLQMNSLKPEDTAVYYCNDDYFQDRLDYWGQGTQVTVSS | low polyreactivity
QVQLVESGGGLVQAGGSLRLSSAASGSRNAMGWSRQAPGKEREFVAAITWNGGSTYYADSVKGRFTISRDNAKNTVYLQMNSLKPEDTAVYYCNKREVFIYGTTYDYWGQGTQVTVSS | low polyreactivity
QVQLVESGGGLVQAGGSLRLSSAASGSTFGAYAMGWYRQAPGKERELVAVINSDGSTNYADSVKGRFTISRDNAKNTVYLQMNSLKPEDTAVYFCAKERTSRGGVPRMNYWGQGTQVTVSS | low polyreactivity

Sequence | polyreactivity (PSR sort gate)
QVQLVESGGGLVQAGGSLRLSSAASGSTFRGNAMGWYRQAPGKERELVAAISAIGGSTYYADSVKGRFTISRDNAKNTVYLQMNSLKPEDTAVYYCAARYLYLLGGFNYWGQGTQVTVSS | high polyreactivity
QVQLVESGGGLVQAGGSLRLSSAASGSTFRWYAMGWSRQEPGKEREFVAAITWSGGRTYYADSVKGRFTISRDNAKNTVFLQLNSLKPEDTAVYYCNAYDYGYSFNYWGQGTQVTLSS | high polyreactivity
QVQLVESGGGLVQAGGSLRLSSAASGSTFRYYVMGRYRQAAGKERELVAGISSRGGTTYYADSVKGRFTISRDNAKNTVYLQMNSLKPEDSAVYYCNADTAAAQASYDRLYVLLDYWGQGTQVTVSS | low polyreactivity
QVQLVESGGGLVQAGGSLRLSSAASGSTFTLYAMGWYRQAPGKERELVATITGSGGSTNYADSVKGRFTISRDNAKNTVYLQMNSLKPEDTAVYYCAADYAVYSFTEFNYWGQGTQVTVSS | high polyreactivity
QVQLVESGGGLVQAGGSLRLSSAASGSTFVQNAMGWYRQAPGKERELVAAISRGGTSTYYADSVKGRFTISRDNAKNTVYLQMNSLKPEDTAVYYCAAYTSYLGYPYDYWGQGTQVTVSS | high polyreactivity
QVQLVESGGGLVQAGGSLRLSSAASGSTFWYYAMGWYRQAPGTERELVAGITQSGGSTYYADSVKGRFTISRDNAKNTVYLQMNSLKPEDTAVYYCAKDGRVSGDFDYWGQGTQVTVSS | low polyreactivity
QVQLVESGGGLVQAGGSLRLSSAASGSTIRVYAMGWYRQAPGKERELVATISWGGGRTYYADSVKGRFTISLDNAKNTVYLQMNSLKQEDTSVYYCAADQRWTTDQPTAGDYWGQGTQVTVSS | low polyreactivity
QVQLVESGGGLVQAGGSLRLSSAASGSTYFTYAMGWYRQAPGKERELVAAISWSGGTTYYADSVKGRFTISRDNAKNTVYLQMNSLKPEDTAVYYCASARDGILKANDYWGQGTQVTVSS | low polyreactivity
QVQLVESGGGLVQAGGSLRLSSAASGYTFSRNAMGWYRQAPGKERELVASISSRGGSTRYADSVKGRFTISRDNAKYTVYLQMNSLKPEDTAVYYCAVRGLYSPFTYGYWGQGTQVTVSS | high polyreactivity
QVQLVESGGGLVQAGGSLRLSSAASTYLRLLMLWDGIDRRLGQIGSWLPLLTLVVNSTYYADSVKGRFTISRDNAKNTVYFQMNSLKPEDTAVYYCNVDPYGTYARTHLEYWGQGTQVTVSS | low polyreactivity
QVQLVESGGGLVQAGGSLRLSSADSGRIFNRYAMGSYRQAPGKERELVAAITGSGGRTYYADSVKGRFTISRDNAKNTVYLQMNSLKPEDTAVYYCAATSLIYGYRTYDYWGQGTQVTVSS | high polyreactivity
QVQLVESGGGLVQAGGSLRLSSADSGRIFSYYAMGGYRQAPGKEREFVATITYGGGSTYYADSVKGRFTISRDNAKNTVYLQMNSLKPEDTAVYYCAARGYSYRGWRMDYWGQGSQVTVSS | high polyreactivity
QVQLVESGGGLVQAGGSLRLSSAGSGSTLAYNAMGWYRQAPGKERELVAAISRGTSTYYADSVKGRFTISRDNAKNTVYLQMNSLKPEDTEVYYCAADYVIQYREYDSWGQGTQVTVSS | low polyreactivity
QVQLVESGGGLVQAGGSLRLSSAPSGRTFLSNAMGWYRQAPGKERELVAAITWETDSTYYADSVKGLFTISRDNAKNTVYLQMNSLKPEDTAVYYCAARRYRPFTDYDGRTWWTRDYWGQGTQVTVSS | low polyreactivity
QVQLVESGGGLVQAGGSLRLSSAPSGSIFWGYAMGWYRQAPGKERELVATIRNRGGSTYYADSVKGRFTISRDNAKNTVYFQMNSRKPDDTAVYYCAAVSYRQYYGWGNYWGQGSQVTVSS | low polyreactivity
QVQLVESGGGLVQAGGSLRLSSASSGFTFNSYAMGWYRQAPGKERELVAAIDTGDDITYYADSVKGRFTISRDNAKNTVYLQMNSLKPVDTAVYYCAAKSRRQYTVGLSSDYWGQGTQVTVSS | high polyreactivity
QVQLVESGGGLVQAGGSLRLSSASSGRTLVPYAMGWYRQAPGKERELVAAISSGGYTNYADSVKGRFTISRDNAKNTVYLQMNSLKPEDTAVYYCAADYPVRSYDYWGQGTQVTVSS | low polyreactivity
QVQLVESGGGLVQAGGSLRLSSASSRSTFLLNAMGWYRQEPGKERELVAAITWTGGSTYYADSVKGLFTISRDNANNNVYLQMNSLNQEDTAVYYCAAETYVTSYYYWGQGTQVTVSS | low polyreactivity
QVQLVESGGGLVQAGGSLRLSSDASGNTFVYNAMGWYRQAPGKERKLVAGITKTGGRTYYADSVKGRFTISRDNAKNTVYLQMNSLKPDDTAVYYCAARPWNDGYYVGRFHMDYWGQGTQVTLSS | low polyreactivity
QVQLVESGGGLVQAGGSLRLSSDDSGFTFVSNAMGWYRQAPGKEMELVAVISSGGSTTYADSVKGRFTISRDNAKNTVYLQMNSLKPEDTAVYYCATTNYQDSYEGGDYWGQGTQVTVSS | low polyreactivity
